# Assay results from patent US11491212.
# System: CB 2679d (modified FIX R318Y/R338E/T343R, SEQ ID NO:394), mature single-chain zymogen form
# Assay: not given
# Chain of CB 2679d (modified FIX R318Y/R338E/T343R, SEQ ID NO:394), mature single-chain zymogen form (chain, as listed by the source R318Y R338E T343R): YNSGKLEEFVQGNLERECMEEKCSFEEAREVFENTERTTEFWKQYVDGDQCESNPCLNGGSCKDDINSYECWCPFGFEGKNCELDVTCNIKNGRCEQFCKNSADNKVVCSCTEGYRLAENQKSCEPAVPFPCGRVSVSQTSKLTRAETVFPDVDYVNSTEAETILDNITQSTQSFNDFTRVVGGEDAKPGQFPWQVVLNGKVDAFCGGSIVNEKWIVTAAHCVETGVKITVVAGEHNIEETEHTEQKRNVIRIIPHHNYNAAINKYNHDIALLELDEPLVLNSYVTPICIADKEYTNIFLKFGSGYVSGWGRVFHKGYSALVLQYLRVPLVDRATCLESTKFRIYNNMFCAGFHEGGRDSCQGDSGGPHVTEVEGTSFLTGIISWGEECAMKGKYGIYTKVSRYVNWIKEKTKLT
row,Substance,activation rate and extent of activation by factor XIa/calcium
1,"activated Factor XI (FXIa; Heamatologic Technologies, Inc.)",The activation rate of the polypeptide of SEQ ID NO:394 (CB 2679d) by factor XIa/calcium and the extent of activation (approximately 100%) were equivalent to those of commercial lots of BeneFIX®

# System: plasma purified human AT-III (antithrombin III)
# Assay: same assay; ratio of K0.5 to Catalyst Biosciences WT FIXa
row,Substance,K0.5-mut/K0.5-wt
1,"BeneFIX Coagulation Factor IX (Recombinant), activated (FIXa)",0.9 fold
2,FIXa A103N/N105S,1.1 fold
3,FIXa D85N,1.1 fold
4,FIXa D104N/K106S,0.9 fold
5,FIXa K106N/V108S,1.6 fold
